These results are taken from PMC3510516.

Common to all, as to experiment: fluorescence anisotropy
The test system of series [1] is GyrA lacking GyrA-box (GyrA_dA);GyrB (Bacillus subtilis;Bacillus subtilis). Particulars: 4 uM GyrB, 10 mM Mg2+, 37 C; CTD: 50 mM Tris-HCl, 40 mM KCl (Results say NaCl), 10 mM MgCl2, 25 C (pH not stated), 100 nM DNA; gyrase: 50 mM Tris-HCl pH 7.5, 100 mM KCl, 10 mM MgCl2, 37 C ….
Series [2] deals with GyrA;GyrB (Bacillus subtilis;Bacillus subtilis). Particulars: 4 uM GyrB, 10 mM Mg2+, 37 C; CTD: 50 mM Tris-HCl, 40 mM KCl (Results say NaCl), 10 mM MgCl2, 25 C (pH not stated), 100 nM DNA; gyrase: 50 mM Tris-HCl pH 7.5, 100 mM KCl, 10 mM MgCl2, 37 C ….
The subject of series [3] is GyrA CTD (Bacillus subtilis). As to conditions: CTD: 50 mM Tris-HCl, 40 mM KCl (Results say NaCl), 10 mM MgCl2, 25 C (pH not stated), 100 nM DNA; gyrase: 50 mM Tris-HCl pH 7.5, 100 mM KCl, 10 mM MgCl2, 37 C ….
The subject of series [4] is GyrA CTD lacking GyrA-box (Bacillus subtilis). As to conditions: CTD: 50 mM Tris-HCl, 40 mM KCl (Results say NaCl), 10 mM MgCl2, 25 C (pH not stated), 100 nM DNA; gyrase: 50 mM Tris-HCl pH 7.5, 100 mM KCl, 10 mM MgCl2, 37 C ….

For 60-bp gate-DNA, the equilibrium dissociation constant (Kd) in series [1] turned out to be 0.05 µM; in series [2], 0.063 µM.
On to 40-bp DNA wrapping substrate, for which the Kd in series [3] stood at 13.2 µM; in series [4], 13.1 µM.

As a reminder, the Kd is a measure of binding affinity in units of concentration. A high value points to weaker binding.
